# The RNAGym collection of RNA variant scans (doi:10.1073/pnas.2313332121)
# B1: TPR t1 (parent)
# chain: GACCAAUCUGCCCUCAGAGCUCGAGAACAUCUUCGGAUGCAGAGGAGGCAGGCUUCGGUGGCGCGAUAGCGCCAACGUCCUCAACCUCCAAUGCAUCCCACCACAUGAUGAUGCCUGAAGAGCCUUGGUUUUUUG
# Variants of: B1
# Assay: polymerase ribozyme fitness, log enrichment relative to wild type (log ratio); higher = more active; in vitro selection for triplet polymerase activity
# How it was run: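 Libraries of mutants in each subunit of a heterodimeric triplet polymerase ribozyme were generated by PCR and transcribed. In triplicate, each went through one in vitro selection round: annealing with biotinylated primer, partner subunit and triplets; frozen incubation at −7 °C; gel excision of extended constructs; streptavidin-bead capture; RT-PCR. Fitness, taken from Illumina sequencing of input and output libraries, is the logarithm of a genotype's enrichment over wild-type enrichment, averaged across replicates with inverse-variance weights. The logarithm is base 2, and genotypes needed ≥10 input reads and ≥1 read per output to be kept.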
row,Variant,polymerase ribozyme fitness (log ratio)
1,GACCAAUCUGCCCUCAGAGCUCGAGAACAUCUUCGGAUGCAGAGUGGGCAGGCUUCGGUGGCGCGAUAACGCCAACGUCCUCAACCUCCAAUGCAUCCCACCACAAGAUGAUGCCUGAAGAGCCUUGGUUUUUUG [G45U A46G G69A U106A],-3.18
2,GACCAAUCUGCCCUCAGAGCUCGAGAACAUCUUCGGAUGCAGAGUAGGCAGGCUUCGGUGGCGCGAUAGCGCCAACGUCCUCAACCUCCAAUGCAUCACACCACAUGAUGAUGCCUGAAGAGCCUUGGUUUUUUG [G45U C98A],-6.01
3,GACCAAUCUGCCCUCAGAGCUCGAGAACAUCUUCGGAUGCAGAGUAGGCAGGCUUCGGUGGCGCGAUAGCGACAACGUCCCCACCCUCCAAUGCAUCCCACCAUAUGAUUAUGCCUGAAGAGCCUUGGUUCUUUG [G45U C72A U81C A84C C104U G110U U131C],-4.32
4,GACCAAUCUGCCCUCAGAGCUCGAGAACAUCUUCGGAUGCAGAGCAGGCAGGCUGCGGUGGCGCGAUAUCGCCAACGUCCUCAACCUCCAAUGCAUCCCACCACAUAAUGAUGCCUGAAGAGCCUUGGUUUUUUG [G45C U55G G69U G107A],-5.92
5,GACCAAUCUGCCCUCAGAGCUCGAGAACAUCUUCGGAUGCAGAGUAGGCAGGCUUAGGGGGCGCGAUAGCGCCAACGUCCUCAACCUCCAAUGCAUCCCAGCACAUGAUGAUGCCUGAAAAGCCUUGAUUUUUUA [G45U C56A U59G C101G G120A G128A G135A],-3.75
6,GACCAAUCUGCCCUCAGAGCUCGAGAACAUCUUCGGAUGCAGAGUAGGCAGGCUUCGGUGGCGCGAUAGCGCCAACGUCCUCAACCUCCAAUGCAUCCCACCACAUGAUGAUGCUUGAAGAGCCUUGGUUUUUUG [G45U C115U],-2.6
7,GACCAAUCUGCCCUCAGAGCUCGAGAACAUCUUCGGAUGCAGAGUCGGCAGGCUUCGGUGGCGCGAUAGCGCCAACGUCCUCAACCUCCACUGCAUCCCACCACAUGAUGAUGCCUGAAGAGCCUUGGUUUUUUG [G45U A46C A91C],-2.71
8,GACCAAUCUGCCCUCAGAGCUCGAGAACAUCUUCGGAUGCAGAGUAGGCAGGCUUCGGUGGCGCGAUAGCGGCAACGUCCUCAACCUCCACUGCAUCCCACCACAUGAUGAUGCCUGAAGAGCCUUGGUUUUUUG [G45U C72G A91C],-2.3
9,GACCAAUCUGCCCUCAGAGCUCGAGAACAUCUUCGGAUGCAGAGCAGGCAGGCUUCGGUGGCGCGAUAGCGCCAACGUCCUCAACCUCCAAUGCAUCCCACCACAUGAUGAUGCCUGAAGAGCCUUGCUUUUUUG [G45C G128C],-4.18
10,GACCAAUCUGCCCUCAGAGCUCGAGAACAUCUUCGGAUGCAGAGUAGGCAGGCUUUGGUGGCGCGAUAGCGCCAACGUCCGCAACCUCCAAUGCAUCCCAGCACAUGAUGAUGACUGAAGAGCCUUGGUUUUUUG [G45U C56U U81G C101G C114A],-5.46
11,GACCAAUCUGCCCUCAGAGCUCGAGAACAUCUUCGGAUGCAGAGCAGGCAGGCUUCGAUGGCGCGAUAGCGCCAACGUCCUCAACCUCCAAUGCAUCCCACCACAUGAUGAUGCCUGAAGCGCCUUGGUUUUUUG [G45C G58A A121C],0.614
12,GACCAAUCUGCCCUCAGAGCUCGAGAACAUCUUCGGAUGCAGAGCAGGCAGGCUUCCGAGGCGCGAUAGCGCCAACGUCCUCAACCUCCAAUGCAUCCCACCACAUGAUGAUGCCUGAAAAGCCUUGGUUUUUUG [G45C G57C U59A G120A],-0.07
13,GACCAAUCUGCCCUCAGAGCUCGAGAACAUCUUCGGAUGCAGAGCAGGCAGGCUUCGAUGGCGCGAUAGCGCCAACGUCCUCAACCUCCAAUGCAUCCCACCACAUGAUGAUGCCUGAAGAGCCUUGGUUUUUUG [G45C G58A],-0.146
14,GACCAAUCUGCCCUCAGAGCUCGAGAACAUCUUCGGAUGCAGAGCAGGCAGGCUUCGGUCGCGCGAUAGCGCCAACGUACUCAACCUCCAAUGCAUCCCACCACAUGAUGAUGCCUGAAGAGCCUUGGUUUUUUG [G45C G60C C79A],-1.42
15,GACCAAUCUGCCCUCAGAGCUCGAGAACAUCUUCGGAUGCAGAGUAGGCAGGCUUCGGUGGCGCGAUAGCGUCAACGUCCUCAACCUUCAAUGCAUCCCACCACAUGAUGAUUCCUGAAGAGCCUUGGAUUUUUG [G45U C72U C88U G113U U129A],-5.57
16,GACCAAUCUGCCCUCAGAGCUCGAGAACAUCUUCGGAUGCAGAGUAGGCAGGCUUCGGUGGCGCGAUAGCGCCAACGUCCUCAACCUCCAAUGCAUCCCACCACAUGAUGAUGCAUGAAGAGCCUUGUUUUUUUG [G45U C115A G128U],-4.73
17,GACCAAUCUGCCCUCAGAGCUCGAGAACAUCUUCGGAUGCAGAGCAGGCAGGCUUCGGUGGCGCGAUAGCACUAACGUCCUCAACAUCCAAUGCAUCCCACCACAUGAAGAUGCCUGAAGAGCCUUGGUUUUUUG [G45C G71A C73U C86A U109A],-6.99
18,GACCAAUCUGCCCUCAGAGCUCGAGAACAUCUUCGGAUGCAGAGUAGGCAGGCUUCGGUGGCGCGAUAGUGCCAACGUCCUCAAUCUCAAAUGCAUCCCACCAUAUGAUGAUGCCUGAAGAGCCUUGGUUUUUUG [G45U C70U C85U C89A C104U],-5.61
19,GACCAAUCUGCCCUCAGAGCUCGAGAACAUCUUCGGAUGCAGAGUAGGCAGGCUUCGGUGGCGCGAUAGCGGCAACGUCCUCAACCUCCAAUGCAUCCCACCACAUGAUGAUGCCUGAAGAGCCUUGGUUUUUUG [G45U C72G],-1.73
20,GACCAAUCUGCCCUCAGAGCUCGAGAACAUCUUCGGAUGCAGAGUAAGCAGGCUUCGGUGGCUCGAUAGCGCCAACGUCCUGAACCUCCAAUUCAUCCCACCACAUGAUGAUGCCUCAGGAGCCUUGGUUUUUUG [G45U G47A G63U C82G G93U G117C A119G],-7.49
21,GACCAAUCUGCCCUCAGAGCUCGAGAACAUCUUCGGAUGCAGAGCAGGCAGGCUUCGGUGGCGCGAUAGCGCCAACGUCCUCAACCUCCAAUGCAUCCCACCACAUGAUGAUGCCUGAAGAGCCUUGGUUUUGUU [G45C U133G G135U],-1.52

row,Variant,polymerase ribozyme fitness (log ratio)
1,GACCAAUCUGCCCUCAGAGCUCGAGAACAUCUUCGGAUGCAGAGUAGGCAGGCUUCGGUGGCGCGAUAGCGCCAACGUCCUCACCCUCCAAUGCAACCCACCACAUGAUAAUGCCUGAAGAGCCUUGGUUAUUUG [G45U A84C U96A G110A U131A],-3.98
2,GACCAAUCUGCCCUCAGAGCUCGAGAACAUCUUCGGAUGCAGAGUAGGCAGGCUUCGGUGGCGUGAUAGCGCCAACGUCCUCAACCUCCAAUGCAACCCACCACAUGAUAAUGCCUGAACAGCCUUGGUUUUUUG [G45U C64U U96A G110A G120C],-4.67
3,GACCAAUCUGCCCUCAGAGCUCGAGAACAUCUUCGGAUGCAGAGUAGGAAGGCUUCGGUGGCGCGAUAGCGCCAACGUCCUCAACCUUCAAUGCAUCCCACCACUUGAUGAUGCCUGAAGAGCCUUGAUUUUUUG [G45U C49A C88U A105U G128A],-4.94
4,GACCAAUCUGCCCUCAGAGCUCGAGAACAUCUUCGGAUGCAGAGUAGGCAGGCUUCGGUGGCGCGAUAGCGCAAACGUCCUCAACCUCCAAUGCUUCCCACCACAUGAUGAUGCCUGAAGAGCCUUGGUUUUUUG [G45U C73A A95U],-1.21
5,GACCAAUCUGCCCUCAGAGCUCGAGAACAUCUUCGGAUGCAGAGUAGGCAGGUUUCGGUGGCGCGAUAGCGCCAACGUCCUCAACCUCCAAUGCAUCCCACCACAUGAUGAUGCCUGAAGAGCCUUGGUAUUUUG [G45U C53U U130A],-1.99
6,GACCAAUCUGCCCUCAGAGCUCGAGAACAUCUUCGGAUGCAGAGUAGGCAGGCUUCGGUGGUGCGAUAGCGCCAACGUCCUCAACCUCCAAUGCAUCCCACCACAUUAUGAUGCCCGAAGAGCCUUGGUUUUUUG [G45U C62U G107U U116C],-5.58
7,GACCAAUCUGCCCUCAGAGCUCGAGAACAUCUUCGGAUGCAGAGUAGGCAGGCUUCGGUGGCGCGAUAGCGCCAACGUCCUCAACCUCCAAUGCAUCCCCCCACAUGAUGGUGCCUGAAGGGCCCUGGUUUUUUG [G45U A100C A111G A121G U125C],-1.08
8,GACCAAUCUGCCCUCAGAGCUCGAGAACAUCUUCGGAUGCAGAGUAGGCAGGCUUCGGUGGCGCGAUAGCGCUAACGUCCUCAACCUCCAAUGCAUCUCACCACAUGAUGGUGCCUGAAGAGCCAUGGUUUUUUG [G45U C73U C98U A111G U125A],-6.59
9,GACCAAUCUGCCCUCAGAGCUCGAGAACAUCUUCGGAUGCAGAGUAGGCAUGCUUCGGUGGCGCGAUAGCGCCAACGUCCUCAACCUCCAAUGCAUCCCACCACAUGAUGAUGCCUGGAUAGCCUUGGUUUUUUG [G45U G51U A118G G120U],-7.09
10,GACCAAUCUGCCCUCAGAGCUCGAGAACAUCUUCGGAUGCAGAGUUGGCAGGCUUAGGUGGCGCGAUAGCGCCAACGUCCUCAACCUCCAAUACAUCCCACCACAUGAUGAUGCCUGAAGAGCCUUGGUUUUUUG [G45U A46U C56A G93A],-4
11,GACCAAUCUGCCCUCAGAGCUCGAGAACAUCUUCGGAUGCAGAGUAGGCAGGCUUCGGUGGCGCGAUAGCGCCAACGUCCUCCACCUCCAAUUCAUCCCACCACAUGAUGAUGCCCGAAGAGGCUUGGUUUUUUG [G45U A83C G93U U116C C123G],-4.31
12,GACCAAUCUGCCCUCAGAGCUCGAGAACAUCUUCGGAUGCAGAGUAGGAAGGCUUCGGCGGCGCGAUAGCGCCAACGUCCUCAACCUCCAAUGCAUGCCACCACAUGAUGAUGCCUGAAGAGCCUUGGUUUUUUG [G45U C49A U59C C97G],-5.1
13,GACCAAUCUGCCCUCAGAGCUCGAGAACAUCUUCGGAUGCAGAGCAGGCAGGCUUCGGUGGCGCUAUAGCACCGACGUCCUCAACCUCCAAUGCAUCCCACCACAUGAUGAUGCCUGAAGAGCCUUGGUUUUUUG [G45C G65U G71A A74G],-5.88
14,GACCAAUCUGCCCUCAGAGCUCGAGAACAUCUUCGGAUGCAGAGUAGGCAGGCUUCGGUGGCGCGAUAGCGUCAACGGCCUCAACCUCCAAUGCAUCCCAACACAUGAUGAUGCCUGAAGAACCUUGGUUUUUUG [G45U C72U U78G C101A G122A],-2.81
15,GACCAAUCUGCCCUCAGAGCUCGAGAACAUCUUCGGAUGCAGAGUAGGCAGGCUUCGGUGGCGCGAUAGCGCCAACGUCCUCAACCUCCAAUGCAUUCCACCACAUGAUGAAGCCUGAAGAGCCUUGGUUUUUUG [G45U C97U U112A],-0.0204
16,GACCAAUCUGCCCUCAGAGCUCGAGAACAUCUUCGGAUGCAGAGUAGGCAGGUUUCGGUGGCGCGAUAGCGCCAACGUCCUCAACCUCCAAUGCAUCCCACCACAUGAUGAUGCCUGAAGAGCCUUGGUUUUUUG [G45U C53U],-2.81
17,GACCAAUCUGCCCUCAGAGCUCGAGAACAUCUUCGGAUGCAGAGUAGGCAGGCUUCGGUGGCGCGAUAGCGCCAACGUCCUCAACCUCCAAUGCAUCCCACCACUUGAUGAUGCCUGAAGAGCCUUGGUUUUUUG [G45U A105U],-3.16
18,GACCAAUCUGCCCUCAGAGCUCGAGAACAUCUUCGGAUGCAGAGUAGACAGGCUUCGGUGGCGCGAUAGCGCCAACGUCCUCAACCUCCAAUGCAUCCCACCACAUGAUGAUGCCUGAAGAGCCUUGGUUUCUUG [G45U G48A U132C],-1.5
19,GACCAAUCUGCCCUCAGAGCUCGAGAACAUCUUCGGAUGCAGAGCAGGCAGGCUUCGGUGGCGCGAUAGCGCCAACGUCCUCAACCUCCAAUGCAUCCCACCACAUGACGAUGCCUGAAGAGCCUUGGUUUUUUG [G45C U109C],-4.66
20,GACCAAUCUGCCCUCAGAGCUCGAGAACAUCUUCGGAUGCAGAGUAGGAAGGCUUCGGUGGCGCGAUAGCGCCAACGUCCUCAACCUCCAAUGCAUCCCACCACAUGAUGAUGCCUGAAGAGCCUUGGUUUUUUG [G45U C49A],-0.895
21,GACCAAUCUGCCCUCAGAGCUCGAGAACAUCUUCGGAUGCAGAGUAGGCAGGCUUCGGUGGCGCGAUAGCGGCAACGUCCUCAACCUCGAAUGCAUCCCACCACAUGAUGAUGCCUGAAGAGCCUUGGUUUUUUG [G45U C72G C89G],-3.39
